Laboratory results: patent US20250182853A1 (TOHOKU UNIVERSITY, published 2025)

target: T1, Galectin-3 (UniProt P17931 1-250, limits assumed); assay: ELISA, eight 2-fold dilutions starting from 1.5 uM
T1 construct: Immobilized on magnetic particles for panning and on ELISA wells via NeutrAvidin; also called Gal-3; target Galectin-3
T1 sequence (P17931 whole entry): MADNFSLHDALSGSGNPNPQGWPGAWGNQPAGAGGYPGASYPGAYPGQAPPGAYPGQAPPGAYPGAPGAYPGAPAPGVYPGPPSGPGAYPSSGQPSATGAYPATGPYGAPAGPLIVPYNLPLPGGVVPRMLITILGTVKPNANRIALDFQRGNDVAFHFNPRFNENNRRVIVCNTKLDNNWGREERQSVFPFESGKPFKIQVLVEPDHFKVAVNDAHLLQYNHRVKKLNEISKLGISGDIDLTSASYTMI

EC50 [nM] | Binder
92.5 | 1E2 mutant (2u2f mutant from Cluster 1) (designed binder, Purified monomer from a pET22b vector in E. coli (IMAC, SEC); The tag is not described) AHKLFIGGLPVDYNDDQVKELLTSFGPLKAFNLVKDSATGLSKGYAFAEYVDINVTDQAIAGLNGNVCHLHTLLVQRASVGAKNADYKDDDDKLEHHHHHH
201 | 4H5 mutant (2u2f mutant from Cluster 4) (designed binder, Purified monomer from a pET22b vector in E. coli (IMAC, SEC); The tag is not described) AHKLFIGGLPDYYGDDQVKELLTSFGPLKAFNLVKDSATGLSKGYAFAEYVDINVTDQAIAGLNGRFYGTATLLVQRASVGAKNADYKDDDDKLEHHHHHH
79.9 | 1H2 mutant (2u2f mutant from Cluster 1) (designed binder, Purified monomer from a pET22b vector in E. coli (IMAC, SEC); The tag is not described) AHKLFIGGLPVDYNDDQVKELLTSFGPLKAFNLVKDSATGLSKGYAFAEYVDINVTDQAIAGLNGSGSRIRALLVQRASVGAKNADYKDDDDKLEHHHHHH
277 | 3B5 mutant (2u2f mutant from Cluster 3) (designed binder, Purified monomer from a pET22b vector in E. coli (IMAC, SEC); The tag is not described) AHKLFIGGLPADGDDDQVKELLTSFGPLKAFNLVKDSATGLSKGYAFAEYVDINVTDQAIAGLNGFATSRFSLLVQRASVGAKNADYKDDDDKLEHHHHHH
